Results: doi:10.1101/625327

Experiments:
Assay in all cases: SPR
M/N20 = M/N20 (UniProt Q9UBB5)
M/N60 = M/N60 (UniProt Q9UBB5)
M/N120 = M/N120 (UniProt Q9UBB5)

Measured: Kd

P15 (from UniProt Q86YP4 137-178) (domain or fragment)
3 nM: all assays above
